Reference: patent publication US20250154202A1 (published 2025)
Bridge positions count the residues as written; N and C are the ends. Square brackets hold non-standard residues; d marks the D form. Ends that are not written are not given here.

B1: Ac-Ser-Arg-Leu-Glu-Glu-Glu-Leu-Arg-(cyclo9)Lys-Arg-Leu-Thr-(cyclo13)Glu-NH2 (peptide)
peptide: Ac-SRLEEELRKRLTE-NH2
modifications: lactam 9-13
SMILES: CC(=O)N[C@@H](CO)C(=O)N[C@@H](CCCNC(=N)N)C(=O)N[C@@H](CC(C)C)C(=O)N[C@@H](CCC(=O)O)C(=O)N[C@@H](CCC(=O)O)C(=O)N[C@@H](CCC(=O)O)C(=O)N[C@@H](CC(C)C)C(=O)N[C@@H](CCCNC(=N)N)C(=O)N[C@H]1CCCCNC(=O)CC[C@@H](C(N)=O)NC(=O)[C@H]([C@@H](C)O)NC(=O)[C@H](CC(C)C)NC(=O)[C@H](CCCNC(=N)N)NC1=O
notes: Cyclic ALFA tag; also called SD15193
B2: Ac-Ser-Arg-Leu-Glu-(cyclo5)Asp-Glu-Leu-Arg-(cyclo9)Lys-Arg-Leu-Thr-Glu-NH2 (peptide)
peptide: Ac-SRLEDELRKRLTE-NH2
modifications: lactam 5-9
SMILES: CC(=O)N[C@@H](CO)C(=O)N[C@@H](CCCNC(=N)N)C(=O)N[C@@H](CC(C)C)C(=O)N[C@@H](CCC(=O)O)C(=O)N[C@H]1CC(=O)NCCCC[C@@H](C(=O)N[C@@H](CCCNC(=N)N)C(=O)N[C@@H](CC(C)C)C(=O)N[C@H](C(=O)N[C@@H](CCC(=O)O)C(N)=O)[C@@H](C)O)NC(=O)[C@H](CCCNC(=N)N)NC(=O)[C@H](CC(C)C)NC(=O)[C@H](CCC(=O)O)NC1=O
notes: Cyclic ALFA tag; also called SD15196
B3: Ac-Ser-Arg-Leu-Glu-(cyclo5)Glu-Glu-Leu-(cyclo8)Lys-Arg-Arg-Leu-Thr-Glu-NH2 (peptide)
peptide: Ac-SRLEEELKRRLTE-NH2
modifications: lactam 5-8
SMILES: CC(=O)N[C@@H](CO)C(=O)N[C@@H](CCCNC(=N)N)C(=O)N[C@@H](CC(C)C)C(=O)N[C@@H](CCC(=O)O)C(=O)N[C@H]1CCC(=O)NCCCC[C@@H](C(=O)N[C@@H](CCCNC(=N)N)C(=O)N[C@@H](CCCNC(=N)N)C(=O)N[C@@H](CC(C)C)C(=O)N[C@H](C(=O)N[C@@H](CCC(=O)O)C(N)=O)[C@@H](C)O)NC(=O)[C@H](CC(C)C)NC(=O)[C@H](CCC(=O)O)NC1=O
notes: Cyclic ALFA tag; also called SD15192
B4: Ac-Pro-Ser-Arg-Leu-(cyclo5)Glu-Glu-Glu-Leu-(cyclo9)Lys-Arg-Arg-Leu-Thr-Glu-NH2 (peptide)
peptide: Ac-PSRLEEELKRRLTE-NH2
modifications: lactam 5-9
SMILES: CC(=O)N1CCC[C@H]1C(=O)N[C@@H](CO)C(=O)N[C@@H](CCCNC(=N)N)C(=O)N[C@@H](CC(C)C)C(=O)N[C@H]1CCC(=O)NCCCC[C@@H](C(=O)N[C@@H](CCCNC(=N)N)C(=O)N[C@@H](CCCNC(=N)N)C(=O)N[C@@H](CC(C)C)C(=O)N[C@H](C(=O)N[C@@H](CCC(=O)O)C(N)=O)[C@@H](C)O)NC(=O)[C@H](CC(C)C)NC(=O)[C@H](CCC(=O)O)NC(=O)[C@H](CCC(=O)O)NC1=O
notes: Cyclic ALFA tag; also called SD15806
B5: Ac-Pro-Ser-Arg-Leu-Glu-(cyclo6)Glu-Glu-Leu-Arg-(cyclo10)Lys-Arg-Leu-Thr-Glu-NH2 (peptide)
peptide: Ac-PSRLEEELRKRLTE-NH2
modifications: lactam 6-10
SMILES: CC(=O)N1CCC[C@H]1C(=O)N[C@@H](CO)C(=O)N[C@@H](CCCNC(=N)N)C(=O)N[C@@H](CC(C)C)C(=O)N[C@@H](CCC(=O)O)C(=O)N[C@H]1CCC(=O)NCCCC[C@@H](C(=O)N[C@@H](CCCNC(=N)N)C(=O)N[C@@H](CC(C)C)C(=O)N[C@H](C(=O)N[C@@H](CCC(=O)O)C(N)=O)[C@@H](C)O)NC(=O)[C@H](CCCNC(=N)N)NC(=O)[C@H](CC(C)C)NC(=O)[C@H](CCC(=O)O)NC1=O
notes: Cyclic ALFA tag; also called SD15341
B6: Ac-Pro-Ser-Arg-Leu-Glu-(cyclo6)Glu-Glu-Leu-Arg-(cyclo10)dLys-Arg-Leu-Thr-Glu-NH2 (peptide)
peptide: Ac-PSRLEEELR[dK]RLTE-NH2
modifications: lactam 6-10
SMILES: CC(=O)N1CCC[C@H]1C(=O)N[C@@H](CO)C(=O)N[C@@H](CCCNC(=N)N)C(=O)N[C@@H](CC(C)C)C(=O)N[C@@H](CCC(=O)O)C(=O)N[C@H]1CCC(=O)NCCCC[C@H](C(=O)N[C@@H](CCCNC(=N)N)C(=O)N[C@@H](CC(C)C)C(=O)N[C@H](C(=O)N[C@@H](CCC(=O)O)C(N)=O)[C@@H](C)O)NC(=O)[C@H](CCCNC(=N)N)NC(=O)[C@H](CC(C)C)NC(=O)[C@H](CCC(=O)O)NC1=O
notes: Cyclic ALFA tag; also called SD15808
B7: Ac-Pro-Ser-Arg-Leu-Glu-(cyclo6)Lys-Glu-Leu-Arg-(cyclo10)Glu-Arg-Leu-Thr-Glu-NH2 (peptide)
peptide: Ac-PSRLEKELRERLTE-NH2
modifications: lactam 6-10
SMILES: CC(=O)N1CCC[C@H]1C(=O)N[C@@H](CO)C(=O)N[C@@H](CCCNC(=N)N)C(=O)N[C@@H](CC(C)C)C(=O)N[C@@H](CCC(=O)O)C(=O)N[C@H]1CCCCNC(=O)CC[C@@H](C(=O)N[C@@H](CCCNC(=N)N)C(=O)N[C@@H](CC(C)C)C(=O)N[C@H](C(=O)N[C@@H](CCC(=O)O)C(N)=O)[C@@H](C)O)NC(=O)[C@H](CCCNC(=N)N)NC(=O)[C@H](CC(C)C)NC(=O)[C@H](CCC(=O)O)NC1=O
notes: Cyclic ALFA tag; also called SD15805

These binders were tested against anti-ALFA VHH (assay: dose-response curve fit (log(agonist) vs. response, variable slope), FIG. 2; assay format not described; unit from paragraph 98).
anti-ALFA VHH, sequence (VHH, as listed by the source): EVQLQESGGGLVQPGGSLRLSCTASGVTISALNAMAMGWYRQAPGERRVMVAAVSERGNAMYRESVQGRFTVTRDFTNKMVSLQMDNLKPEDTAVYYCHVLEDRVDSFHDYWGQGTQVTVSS
For B1, the EC50 was 6.05 nM. Binder B2 has an EC50 of 377 nM. B3 showed an EC50 of 5.98 nM. Binder Ac-SRLEEELRRRLTE-NH2 (Linear ALFA tag; also called SD15197) [Ac-Ser-Arg-Leu-Glu-Glu-Glu-Leu-Arg-Arg-Arg-Leu-Thr-Glu-NH2] has an EC50 of 2.6 nM. For SRLEEELRKRLTE (lactam 5-9; not fully specified (N-terminus, C-terminus), also called SD15194) [Ac-Ser-Arg-Leu-Glu-(cyclo5)Glu-Glu-Leu-Arg-(cyclo9)Lys-Arg-Leu-Thr-Glu-NH2], the EC50 was 5.97 nM.

What follows are binders tested against anti-ALFA VHH (assay: dose-response curve fit (log(agonist) vs. response, variable slope), FIG. 2; assay format not described).
Binder B1 has a Bottom of 0.145, a LogEC50 of 0.782 and a Span of 1.29. For the same binder, the Top was 1.44. B2 showed a Bottom of 0.0167, a LogEC50 of 2.58 and a Span of 1.41. For the same binder, the Top was 1.43. B3 gave a Bottom of 0.152, a LogEC50 of 0.776 and a Span of 1.2. The Top was 1.35. With Ac-SRLEEELRRRLTE-NH2 (Linear ALFA tag; also called SD15197) [Ac-Ser-Arg-Leu-Glu-Glu-Glu-Leu-Arg-Arg-Arg-Leu-Thr-Glu-NH2] the Bottom was 0.097, the LogEC50 was 0.414 and the Span was 1.29. The Top was 1.39. Work on SRLEEELRKRLTE (lactam 5-9; not fully specified (N-terminus, C-terminus), also called SD15194) [Ac-Ser-Arg-Leu-Glu-(cyclo5)Glu-Glu-Leu-Arg-(cyclo9)Lys-Arg-Leu-Thr-Glu-NH2] yielded a Bottom of 0.159, a LogEC50 of 0.776 and a Span of 1.27. The Top was 1.43.

Each binder was assayed against T1, biotinylated NbALFA (NanoTag) (biotinylated (site not stated)) (assay: SPR, Biacore T200, biotinylated NbALFA captured on Biotin CAPture chip, peptide as analyte, multi-cycle kinetics, 1:1 model, 25 C).
T1 construct: Bought from NanoTag and captured on the SPR chip through biotin; also called NbALFA-nanobody; Nanobody
T1 sequence (VHH, as listed by the source): as above
Experimental: Affinity measurements were performed using a Biacore T200 (GE Healthcare, Biacore T200 control Software 3.2). For affinity measurement, the Biotin CAPture kit, series S (Cytiva Europe, Cat. no. 28920234) was utilized. A freshly docked Biotin CAPture chip was rehydrated overnight in the instrument (standby mode). The following day, the chip surface was conditioned three times with regeneration solution (6 M guanidine-HCl, 0.25 M NaOH) for 60 s at 10 μL/min on flow cell (FC) 1 and FC2. Subsequently, the Biotin CAPture reagent (Cytiva Europe, Cat. no. 29423383) was applied for 300 s at 2 μL/min on FC1 and FC2, followed by capturing of 25 nM biotinylated NbALFA (NanoTag). The immobilization of the Nanobody was done for 180 s at 10 μL/min on FC2 followed by quenching of unbound streptavidin by 0.1 mM biocytin for 60 s and 30 μL/min on both flow cells. […] injections of 10 nM, 5 nM, 2.5 nM, 1.25 nM, 0.625 nM and 0 nM (blank control) of cyclic ALFA variants were performed over both flow cells for 120 s with a flow rate of 40 μL/min, followed by dissociation for 1500 s. After each cycle, the surface was regenerated for 120 s with 10 μL/min using regeneration solution. All measurements were performed at 25° C. using HBS-EP+ buffer (Cytiva Europe, Cat. no BR100669). The control responses from FC1 were subtracted by the sample measurement in FC2 (FC2−FC1) followed by subtraction of the 0 nM blank injection. Resulting binding curves of this multi cycle kinetic experiment were fitted using the Biacore T200 Evaluation Software 3.2 and a 1:1 binding model.
B4 showed a Kd of 1.43 nM, a koff of 4.94 s⁻¹ and a kon of 3.44e+09 M⁻¹ s⁻¹. B1 showed a Kd of 0.0556 nM, a koff of 0.00109 s⁻¹ and a kon of 1.95e+07 M⁻¹ s⁻¹. For B2, the Kd was 0.436 nM, the koff was 0.0079 s⁻¹ and the kon was 1.81e+07 M⁻¹ s⁻¹. Work on B3 yielded a Kd of 0.0551 nM, a koff of 0.000577 s⁻¹ and a kon of 1.05e+07 M⁻¹ s⁻¹. Ac-SRLEEELRRRLTE-NH2 (Linear ALFA tag; also called SD15197) [Ac-Ser-Arg-Leu-Glu-Glu-Glu-Leu-Arg-Arg-Arg-Leu-Thr-Glu-NH2] gave a Kd of 0.0117 nM, a koff of 0.000593 s⁻¹ and a kon of 5.05e+07 M⁻¹ s⁻¹. Binder B5 has a Kd of 0.0194 nM, a koff of 0.000361 s⁻¹ and a kon of 1.86e+07 M⁻¹ s⁻¹. With SRLEEELRKRLTE (lactam 5-9; not fully specified (N-terminus, C-terminus), also called SD15194) [Ac-Ser-Arg-Leu-Glu-(cyclo5)Glu-Glu-Leu-Arg-(cyclo9)Lys-Arg-Leu-Thr-Glu-NH2] the Kd was 0.0376 nM, the koff was 0.00067 s⁻¹ and the kon was 1.78e+07 M⁻¹ s⁻¹. In the case of B6, the Kd is reported as 0.038 nM, the koff is reported as 0.000513 s⁻¹ and the kon is reported as 1.35e+07 M⁻¹ s⁻¹. Binder B7 has a Kd of 0.103 nM, a koff of 0.000964 s⁻¹ and a kon of 9.33e+06 M⁻¹ s⁻¹.
